Measured values published in publication PMC5473870, “Crystal structure of the DNA-binding domain of Myelin-gene Regulatory Factor” (Scientific Reports, 2017).

Target: the molecule itself
Test: SEC; gel filtration on Superdex-200, 20 mM Tris-HCl pH 7.4, 50 mM NaCl, 5% glycerol; calibrated with ferritin, BSA and ovalbumin

B1: MyRF DBD after auto-cleavage (351–586 plus N-terminal his tag and linker) (domain or fragment, mouse, UniProt Q3UR85-3 351-586, looked up)
chain: IKWQPHQQNKWATLYDANYKELPMLTYRVDADKGFNFSVGDDAFVCQKKNHFQVTVYIGMLGEPKYVKTPEGLKPLDCFYLKLHGVKLEALNQSINIEQSQSDRSKRPFNPVTVNLPPEQVTKVTVGRLHFSETTANNMRKKGKPNPDQRYFMLVVALQAHAQNQNYTLAAQISERIIVRASNPGQFESDSDVLWQRAQLPDTVFHHGRVGINTDRPDEALVVHGNVKVMGSLMHP
notes: Myelin-gene Regulatory Factor (MyRF), mouse, NP_001028653.1; N-terminal product (351-586) of auto-cleavage of the expressed fragment 351-717 (DBD and ICA); also called wild type MyRF DBD; source: E. coli BL21 (DE3), expressed as fragment 351-717, auto-cleaved, purified (nickel-sepharose); not shown: His6, N-terminal, kept
B1 was tested, and the “stoichiometry N” value was 3.

B2: MyRF DBD core (proteolytically resistant, after limited proteolysis with trypsin) (domain or fragment, mouse)
chain: IKWQPHQQNKWATLYDANYKELPMLTYRVDADKGFNFSVGDDAFVCQKKNHFQVTVYIGMLGEPKYVKTPEGLKPLDCFYLKLHGVKLEALNQSINIEQSQSDRSKRPFNPVTVNLPPEQVTKVTVGRLHFSETTANNMRKKGKPNPDQRYFMLVVALQAHAQNQNYTLAAQISERIIVRAS
modifications: selenomethionyl substituted in the crystals (4 Se per molecule)
notes: Myelin-gene Regulatory Factor (MyRF), mouse, NP_001028653.1; trypsin-resistant core of about 24 kD, 210 residues, made from the expressed fragment 351-717; PDB 5H5P holds the crystallised chain; also called MyRF DBD core only; MyRF DBD (crystal structure); source: E. coli BL21 (DE3), nickel-sepharose, limited proteolysis with trypsin, purified (Superdex-75)
With B2 the “stoichiometry N” value was 3.
